Where a chain is given by its changes, count along the chain named.
T1: Endogenous β-catenin of SW480 human colon carcinoma cells (human, UniProt P35222 2-781)
T1 construct: whole, on cells
T1 sequence (looked up): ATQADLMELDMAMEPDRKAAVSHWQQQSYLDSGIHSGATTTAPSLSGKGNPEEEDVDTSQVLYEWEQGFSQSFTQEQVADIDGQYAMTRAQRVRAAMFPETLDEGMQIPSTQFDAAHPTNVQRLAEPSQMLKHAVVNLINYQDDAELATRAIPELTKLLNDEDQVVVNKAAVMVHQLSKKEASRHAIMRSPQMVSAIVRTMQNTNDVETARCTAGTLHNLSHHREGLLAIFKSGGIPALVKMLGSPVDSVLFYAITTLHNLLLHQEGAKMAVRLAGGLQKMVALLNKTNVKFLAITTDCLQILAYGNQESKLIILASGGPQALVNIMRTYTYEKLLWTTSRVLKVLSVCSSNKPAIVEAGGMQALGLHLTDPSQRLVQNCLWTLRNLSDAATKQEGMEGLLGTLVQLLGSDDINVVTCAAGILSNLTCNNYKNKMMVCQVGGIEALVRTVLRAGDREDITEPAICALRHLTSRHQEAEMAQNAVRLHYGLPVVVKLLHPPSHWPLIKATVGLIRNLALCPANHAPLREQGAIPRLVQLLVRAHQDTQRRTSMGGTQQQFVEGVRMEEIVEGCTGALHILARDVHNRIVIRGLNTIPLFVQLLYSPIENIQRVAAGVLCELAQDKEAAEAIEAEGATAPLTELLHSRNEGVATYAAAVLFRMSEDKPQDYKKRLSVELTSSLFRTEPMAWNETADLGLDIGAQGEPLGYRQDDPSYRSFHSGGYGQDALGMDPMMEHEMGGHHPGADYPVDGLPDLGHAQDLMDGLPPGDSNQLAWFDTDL

B1: HA-tagged chicken α-catenin (other)
chain: TAVTAGNVNFRWDPKSLEIRTLAVERLLEPLVTQVTTLVNTSNKGPSNKKRGRSKKAHVLAASVEQATENFLDKGDKIAKESQFLKEELVAAVEDVRKQGDLMKSASGEFADDPCSSVKRGNMVRAARALLSAVTRLLILADMADVYKLLVQLKVVEEGILKLRNAGTEQDLGIQYKALKPEVDKLNIMAAKRQQELKDVGHRDQMAAARGILQKNVPILYTASQACLQHFDVAAYKANRDLIYKQLQQAVTGISNAAQATASDDAAQQQGGGGELAYALNNFDKQIIVDPSTFSEQRFRPSLEERLESIISGAALMADSSCTRDDRRERIVAECNAVRQALQDLLSEYMGNAGRKERSDALNSAIDKMTKKTRDLRRQLRKAVMDHVSDSFLETNVPLLVLIEAARNGNEKEVKEYTQVFREHANKLIEVANLACSISNNEEGVKLVRMSASQLEALCPQVINAALALAAKPQSKLAQENMELFKEQWEKQVRVLTDAVDDITSIDDFLAVSENHILEDVNKCVIALQEKDVDGLDRTAGAIRGRAARVIHVVTSEMDNYEPGVYTEKVLEATKLLSNTVMPRFTEQVEAAVEALSSDPAQPMDENEFIDRSRLVYDGIRDIRKAVLMIRTPEELDDSDFETEDFDVRSKTSIQTEDDQLIAGQSARAIMAQLPQEQKAKIAEAVASFQEEKSKLDAEVSKWDDSGNDIIVLAKQMCMIMMEMTDFTRGKGPLKNTSDVISAAKKIAEAGSRMDKLGRTIADHCPDSASKQDLLAYLQRIALYCHQLNICSKVKAEVQNLGGELVVSGVDSAMSLIQAAKNLMNAVVQTVKASYVASTKYQKSQGMASLNLPAVSWKMKAPEKKPLVKREKQDETQTKIKRASQKKHVNPVQALSEFKAMESI
notes: also called HA α-catenin; not shown: 16-amino acids hemaglutinin (HA)-tag of the pCGN vector at the NH2-terminus
B2: Mouse β-catenin (transfected cDNA) (other, UniProt Q02248 2-781, looked up)
chain: T1 sequence (looked up) with P705A

Legend:
[1] = target: T1, Endogenous β-catenin of SW480 human …; assay: double immunofluorescence, transfected SW480 cells
HA-tagged LEF-1 = assay: cell-based or functional assay
HA-tagged LEF-1, sequence (P27782 whole entry): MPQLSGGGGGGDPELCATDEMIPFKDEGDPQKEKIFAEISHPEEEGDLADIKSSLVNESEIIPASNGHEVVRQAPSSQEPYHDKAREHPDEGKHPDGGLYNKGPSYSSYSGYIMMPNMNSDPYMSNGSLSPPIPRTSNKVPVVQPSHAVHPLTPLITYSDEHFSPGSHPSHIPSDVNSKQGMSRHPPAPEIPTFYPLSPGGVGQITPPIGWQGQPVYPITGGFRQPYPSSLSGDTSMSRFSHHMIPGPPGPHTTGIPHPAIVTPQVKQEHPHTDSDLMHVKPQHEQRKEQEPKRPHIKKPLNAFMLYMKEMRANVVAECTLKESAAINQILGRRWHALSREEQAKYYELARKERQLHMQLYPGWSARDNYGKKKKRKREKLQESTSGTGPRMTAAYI

Row | Binder | binding result [1] | luciferase activity (TOPFLASH reporter) in CHO cells (HA-tagged LEF-1)
1 | B1 | binds | –
2 | B2 | – | ~5 fold
